Publication PMC4742754, “Biochemical and Structural Characterization of the Interaction between the Siderocalin NGAL/LCN2 (Neutrophil Gelatinase-associated Lipocalin/Lipocalin 2) and the N-terminal Domain of Its Endocytic Receptor SLC22A17*” (The Journal of Biological Chemistry, 2015)

What was measured:
[1] = target: hLCN2-R-NTD quadruple mutant (hLCN2-R-NTD-QM) (human) (UniProt Q8WUG5); experiment: NMR 15N CPMG relaxation dispersion; 15N-labelled hLCN2-R-NTD-QM with 0.05, 0.1 and 0.15 eq of unlabelled NGAL; 25 °C; two-state exchange fit, kex and populations as global parameters for the C-terminal residues
[2] = target: hLCN2-R-NTD double mutant (hLCN2-R-NTD-DM), Cys-15–Cys-94 mutated out (human) (UniProt Q8WUG5); experiment: ITC; apoNGAL (500 μM) in the syringe, hLCN2-R-NTD form (50 μM) in the cell; 25 °C, 20 mM Tris, pH 7.4, 50 mM NaCl; single binding site fit
[3] = target: hLCN2-R-NTD quadruple mutant (hLCN2-R-NTD-QM) (human) (UniProt Q8WUG5); experiment: as above
[4] = target: N-terminal domain of the human lipocalin 2 receptor (hLCN2-R-NTD), wild type (human) (UniProt Q8WUG5); experiment: as above
[5] = target: T1, human neutrophil gelatinase-associated lipocalin, hNGAL(C87S) (human, UniProt P80188 21-198, C87S); experiment: MST; GFP-hLCN2-R-NTD fixed at 500 nM, apoNGAL varied 0–300 μM; 20 mM Tris/HCl, pH 7.4, 25 °C; details: both partners purified
T1 construct: human NGAL (LCN2), coding region amplified from pGEX-4T-hNGAL(C87S); The holo form is the same protein loaded with ferric enterobactin (a small molecule); it is told apart by the assay; the wild type was made only for the spin label; also called apoNGAL; LCN2; not shown: His6, N-terminal, cleaved

[6] = target: T1, human neutrophil gelatinase-associated …; experiment: MST; GFP-hLCN2-R-NTD fixed at 500 nM, NGAL/[FeIII(Ent)]3- (NGAL loaded with ferric enterobactin) varied 0–300 μM; 20 mM Tris/HCl, pH 7.4, 25 °C; details: both partners purified

T1 sequence (P80188 21-198 C107S): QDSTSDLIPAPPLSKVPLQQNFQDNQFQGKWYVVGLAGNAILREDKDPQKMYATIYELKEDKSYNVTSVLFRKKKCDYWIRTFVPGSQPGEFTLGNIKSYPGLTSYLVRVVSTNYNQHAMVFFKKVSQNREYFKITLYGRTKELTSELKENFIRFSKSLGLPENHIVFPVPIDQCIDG

kex (0.1 eq of NGAL) [1] | kex (0.15 eq of NGAL) [1] | population of bound state (0.1 eq of NGAL) [1] | Kd [2] | dH [2] | Kd [3] | dH [3] | Kd [4] | dH [4] | stoichiometry N [4] | Kd [5] | Kd [6] | Molecule
1300 s⁻¹ | 1200 s⁻¹ | 1% | 9 µM | -2.1 kcal/mol | 8 µM | -1.4 kcal/mol | 10 µM | -4.5 kcal/mol | 1 | – | – | human neutrophil gelatinase-associated lipocalin, hNGAL(C87S) (from UniProt P80188 21-198) (ligand)
– | – | – | – | – | – | – | – | – | – | 6.6 µM | 20.7 µM | GFP-hLCN2-R-NTD (domain or fragment, Limits: printed residues 1-105 are numbered on the 538-aa isoform (NM_020372); the 649-aa entry is taken to carry a 111-residue N-terminal extension (649-538), so offset +111 (Cys15/59/70/94 = …)) MASDPIFTLAPPLHCHYGAFPPNASGWEQPPNASGVSVASAALAASAASRVATSTDPSCSGFAPPDFNHCLKDWDYNGLPVLTTNAIGQWDLVCDLGWQVILEQI
